Data as given in patent US20190100588A1 (VISTERRA, published 2019).

Assays:
[1] = target: T1, Pep6 (human); assay: peptide binding ELISA
T1 construct: also called Peptide 6; Peptide-6
T1 peptide: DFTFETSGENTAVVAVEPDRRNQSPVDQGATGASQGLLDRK
Description: (§1) As above, the monoclonal antibodies were tested for binding to a series of CD138 peptides in four-fold serial dilutions starting at 1 μg/mL. […] HRP-conjugated anti-human IgG-Fc antibody (1:5000 dilution) was used for detection. Antibody B-B4 was also tested as a reference. […] Reference antibody B-B4 only bound to Peptide 2a.

[2] = target: T2, Peptide 2a (human); assay: peptide binding ELISA
T2 construct: also called Pep2a
T2 peptide: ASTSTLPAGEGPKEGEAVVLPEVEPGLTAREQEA
Description: as §1

[3] = target: T3, Pep4 (human); assay: ELISA, coated peptide
T3 construct: also called Peptide 4
T3 peptide: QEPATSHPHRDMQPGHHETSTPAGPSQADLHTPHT

[4] = target: T4, Pep5 (human); assay: ELISA, coated peptide
T4 construct: also called Peptide 5
T4 peptide: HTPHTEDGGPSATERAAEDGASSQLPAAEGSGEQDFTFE

[5] = target: T1, Pep6; assay: ELISA, coated peptide
[6] = target: T5, rCD138 (recombinant CD138) (human, UniProt P18827 23-254, limits assumed); assay: ELISA, coated rCD138
T5 sequence (looked up): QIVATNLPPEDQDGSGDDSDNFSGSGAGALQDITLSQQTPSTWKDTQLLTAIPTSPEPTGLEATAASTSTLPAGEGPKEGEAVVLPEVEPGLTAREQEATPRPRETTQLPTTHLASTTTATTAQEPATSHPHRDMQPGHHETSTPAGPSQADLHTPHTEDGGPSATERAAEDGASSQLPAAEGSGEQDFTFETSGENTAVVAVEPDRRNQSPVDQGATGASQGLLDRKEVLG

[7] = target: T6, Pep3 (human); assay: ELISA, coated peptide
T6 construct: also called Peptide 3
T6 peptide: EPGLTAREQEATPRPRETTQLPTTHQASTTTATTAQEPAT

[8] = target: T7, cell surface CD138 (human CD138) (human, UniProt P18827 23-310); assay: flow cytometry, U266 cells
T7 construct: whole, on cells; also called membrane CD138
T7 sequence (looked up): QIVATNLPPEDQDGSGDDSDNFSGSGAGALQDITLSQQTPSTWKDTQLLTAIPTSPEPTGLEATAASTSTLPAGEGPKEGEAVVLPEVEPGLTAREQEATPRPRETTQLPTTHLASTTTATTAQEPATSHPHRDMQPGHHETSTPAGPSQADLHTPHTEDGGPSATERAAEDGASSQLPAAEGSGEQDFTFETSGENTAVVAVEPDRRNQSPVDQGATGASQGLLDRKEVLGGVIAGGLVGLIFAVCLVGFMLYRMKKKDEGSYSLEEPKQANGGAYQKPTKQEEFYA
Description: (§2) Binding of anti-CD138 antibodies to CD138 was tested by flow cytometry binding assay. Multiple myeloma cell lines RPMI 8226 (ATCC) and U266 (ATCC) were grown in RPMI1640 with 10% FBS. On the day of experiment, 0.25×10⁶ cells were washed with FACS buffer (PBS+0.5% BSA) and incubated with dilution series of anti-CD138 antibodies (starting 10 ug/ml) or hybridoma supernatants (starting with undiluted supernatant) for 30 min at 4° C. followed by incubation with goat-anti-human/mouse conjugated APC antibodies (BioLegend) for 30 min at 4° C. Fluorescence was detected using flow cytometer.

[9] = target: T7, cell surface CD138 (human CD138); assay: flow cytometry, RPMI 8226 cells
Description: as §2

[10] = target: T8, recombinant CD138 extracellular domain (soluble CD138) (human, UniProt P18827 23-250); assay: ELISA (FIG. 18A)
T8 construct: also called soluble CD138 extracellular domain; biotinylated CD138
T8 sequence: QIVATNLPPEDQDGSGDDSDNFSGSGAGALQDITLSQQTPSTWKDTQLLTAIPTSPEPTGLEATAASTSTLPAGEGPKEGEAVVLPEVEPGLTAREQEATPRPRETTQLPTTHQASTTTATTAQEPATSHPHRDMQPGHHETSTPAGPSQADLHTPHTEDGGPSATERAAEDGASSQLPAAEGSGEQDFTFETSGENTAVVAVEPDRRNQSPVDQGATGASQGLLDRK

[11] = target: T2, Peptide 2a; assay: ELISA (FIG. 18B)
[12] = target: T1, Pep6; assay: ELISA (FIG. 18C)
[13] = target: T7, cell surface CD138 (human CD138); assay: flow cytometry, U266 cells, afucosylated antibody
Description: as §2
The afucosylated antibody variants were then tested for capacity to induce ADCC, as described above.

[14] = target: T7, cell surface CD138 (human CD138); assay: form of CD138 not named

| Binder | ELISA O.D. [3] [O.D.] | ELISA O.D. [4] [O.D.] | ELISA O.D. [5] [O.D.] | ELISA O.D. [6] [O.D.] | ELISA O.D. [7] [O.D.] | % cells Positive [8] [%] | % cells Positive [9] [%] | further results |
| --- | --- | --- | --- | --- | --- | --- | --- | --- |
| antibody 1409 (antibody, human IgG1, V domains shown, Chimeric monoclonal antibody, murine variable regions and human IgG1) VH: EVQLVESGGGLVQPKGSLKLSCAASGFTFNTYAMHWVRQAPGKGLEWVARIRSKSSNYATYYADSVKDRFTISRDDSQSMLYLQMNNLKTEDTAMYYCVRELRLRYAMDYWGQGTSVTVSS VL: DILMTQTPLTLSVTIGQPASISCKSSQSLLYTNGKTYLNWLLQRPGQSPKRLIYLVSKLDSGVPDRFSGSGSGTDFTLKISRVEAEDLGVYYCLQSTHFPLTFGAGTKLELK | – | – | – | – | – | – | – | binding result [1]: binds; binding result [2]: binds |
| antibody 617 (antibody, V domains shown, Mouse hybridoma-derived anti-CD138 antibody) VH: QVQLQLPGAELVKPGASVKVSCKASAYTFTSYWMHWVKQRPGQGLEWIGRIHPSDSDTNYNQNFKGKATLTVDKSSNTAYMQLSSLTSEDSAVYYCATGFSFWGQGTLVTVSA VL: DIVMTQSHKFMSTSVGDRVSITCKASQDVSTTVAWYQQKPGQSPKLLIYSASYRYTGVPDRFTGSGSGTDFTFTISSVQAEDLAVYYCQQHYSTRPTFGGGTKLEIK | 0.091 | 0.066 | 0.809 | – | – | – | – | – |
| antibody 603 (antibody, V domains shown, Mouse hybridoma-derived anti-CD138 antibody) VH: QVQVQVPGAELVKPGASVKVSCKASGYTFTSYWMHWMKKRPGQGLEWIGRIHPSDSDTNYNQNFKGKATLTVDKSSSTAYMQLSSLTSEDSAVYFCATGFSFWGQGTLVTVSA VL: not shown | 0.051 | 0.053 | 0.863 | 0.585 | 0.047 | 95.8 | 81.4 | – |
| antibody 624 (antibody, V domains shown, Mouse hybridoma-derived; afucosylated form used for ADCC) VH: QVQVQLPGAELVKPGASVKVSCKASGYTFTSYWMHWVKKRPGQGLEWIGRIHPSDSDTNYNQNFKGKATLTVDKSSSTAYMQLTSLTSEDFAVYYCSTGFSFWGQGTLVTVSA VL: not shown | 0.069 | 0.066 | 1.68 | 1.52 | 0.069 | 96.7 | 89.3 | – |
| antibody 619 (antibody, V domains shown, Mouse hybridoma-derived anti-CD138 antibody) VH: QIQLVQSGPELKKPGETVKISCKASGYTFTTYGMSWVKQAPGKGLKWMGWINTYSGVPTYADDFKGRFAFSLETSASTAYLQINNLKNEDTATYFCAREGSTMVTRYYFDYWGQGTTLTVSS VL: DIVMTQAAPSVPVTPGESVSISCRSSKSLLHSNGNTYLYWFLQRPGQSPQVLIYRMSNLASGVPDRFSGSGSGTAFTLRISRVEAEDVGVYYCMQHLESPYTFGGGTKLEIK | 0.066 | 0.066 | 1.37 | 0.882 | 0.067 | 3.7 | 85 | – |
| antibody 616 (antibody, V domains shown, Mouse hybridoma-derived anti-CD138 antibody) VH: QIHLVQSGPELKKPGETVRISCKASGYTFTTYGMSWVKQAPGKALKWMGWINTYSGVPTYADDFKGRFAFSLETSASTAYLQINNLKNEDTATYFCTREGSTMVTRYYFDYWGQGTTLTVSS VL: DIVMTQAAPSVPVTPGESVSISCRSSKSLLHSNGNTYLYWFLQRPGQSPQLLIYRMSNLASGVPDRFSGSGSGTAFTLRISRVEAEDVGVYHCMQHLESPYTFGGGTTLEIK | 0.065 | 0.061 | 1.62 | 1.18 | 0.063 | 6.1 | 18.3 | – |
| antibody 623 (antibody, V domains shown, Mouse hybridoma-derived anti-CD138 antibody) VH: QIQLVQSGPELKKPGETVKISCKASGYTFTTYGMSWVKQAPGKGLKWMGWINTYSGVPTYADDFKGRFAFSLETSASTAYLQINNLKNEDTATFFCAREGSTMVTRYYFDYWGQGTTLTVSS VL: DIVMTQAAPSVPVTPGESVSISCRSSKSLLHSNGNTYLYWFLQRPGQSPQLLIYRMSNLASGVPDRFSGSGSGTAFTLRISRVEAEDVGVYYCMQHLEYPSTFGGGTKLEIK | 0.082 | 0.08 | 1.67 | 0.803 | 0.086 | 7 | 63.8 | – |
| antibody 2510 (antibody, human IgG1, V domains shown) VH: QVQLHQPGTSLVKPGASVKLSCKASGYNFSSYYMHWVKQRPGQGLEWIGTIHPSDSTTNYNQKFKGKATLTVDKSSRTAYMQLNSLTFEDSAVYYCANFVYWGQGTSVTVSS VL: DIVITQDELSNPVTSGDSVSISCRSSKSLLYKDGKTYLNWFLQRPGQSPQLLIYVVSTRASGVSDRFSGSGSGTDFTLEISRVKAEDVGVYYCQQLVEYPYTFGGGTKLEIK | – | – | – | – | – | – | – | binding result [10]: binds; binding result [11]: binds; binding result [12]: binds; binding result [13]: binds |
| antibody 2910 (antibody, V domains shown) VH: QVQLHQPGTSLVKPGASVKLSCKASGYTFSSYYMHWVKQRPGQGLEWIGTIHPSDSTTNYNQKFKGKATLTVDKSSRTAYMQLNSLTFEDSAVYYCANFVYWGQGTSVTVSS VL: DIVITQDELSNPVTSGDSVSISCRSSKSLLYKDGKTYLNWFLQRPGQSPQLLIYVVSTRASGVSDRFSGSGSGTDFTLEISRVKAEDVGVYYCQQLVEYPYTFGGGTKLEIK | – | – | – | – | – | – | – | binding result [13]: binds |
| antibody 2710 (antibody, V domains shown) VH: QVQLHQPGTSLVKPGASVKLSCKASGYTFSSYYMHWVKQRPGQGLEWIGTIHPSDSTTNCNQKFKGKATLTVDKSSRTAYMQLNSLTFEDSAVYYCANFVYWGQGTSVTVSS VL: DIVITQDELSNPVTSGDSVSISCRSSKSLLYKDGKTYLNWFLQRPGQSPQLLIYVVSTRASGVSDRFSGSGSGTDFTLEISRVKAEDVGVYYCQQLVEYPYTFGGGTKLEIK | – | – | – | – | – | – | – | binding result [14]: binds |
| antibody 604 (antibody, V domains shown, Mouse hybridoma-derived anti-CD138 antibody) VH: QVQLQQPGAELVKPGASVKVSCKASGYNFINYWMHWVKQRPGQGLEWIGRIHPSDSYTNYNQKFKGKATLTVDKSSSTAYMQLSSLTSEDSAVYYCASPISTLYWGQGTTLTVSS VL: not shown | 0.058 | 0.067 | 0.939 | 0.61 | 0.058 | 96 | 82.5 | – |
